The data set has as its system supercharged variant of human trypsinogen-1 (PRSS1 sc).

Chain of supercharged variant of human trypsinogen-1 (PRSS1 sc) (chain, as listed by the source mutant): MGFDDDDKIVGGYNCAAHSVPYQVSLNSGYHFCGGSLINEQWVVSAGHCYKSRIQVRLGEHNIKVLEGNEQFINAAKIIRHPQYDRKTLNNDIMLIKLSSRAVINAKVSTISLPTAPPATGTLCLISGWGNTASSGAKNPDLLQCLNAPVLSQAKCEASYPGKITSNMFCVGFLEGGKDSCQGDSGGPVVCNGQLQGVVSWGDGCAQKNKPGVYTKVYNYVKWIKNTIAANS

trypsin: the “autoactivation (trypsin activity on CBZ-GPR-pNA after incubation with trypsin)” value is “PRSS1 sc (SEQ ID NO 01) does not show a significant autoactivation”.

(Values after US20160237419.)
